The assay concerns the target T1, Bcl-XL (UniProt Q07817 1-209).
T1 construct: also called anti-apoptotic member Bcl-XL
Description: fluorescence polarisation competition; 15 nM Bak BH3 carboxyfluorescein, 100 nM Bcl-XL. A general note: Fluorescence polarisation rises when a labelled molecule tumbles more slowly, as on binding a larger partner.

The record followed here is patent US20090325883A1 (LES LABORATOIRES SERVIER, published 2009).

T1 sequence (Q07817 1-209): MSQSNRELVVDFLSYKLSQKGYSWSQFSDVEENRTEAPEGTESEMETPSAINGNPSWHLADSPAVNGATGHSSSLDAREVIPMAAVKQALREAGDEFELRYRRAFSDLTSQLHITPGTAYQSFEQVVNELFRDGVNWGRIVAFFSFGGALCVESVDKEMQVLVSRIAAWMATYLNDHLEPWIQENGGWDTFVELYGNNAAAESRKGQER

VMTQEVGQLLQDMGDDVYQQYRSL (also called peptide b)) [Kiaa 1578 peptide] yielded an inhibition constant Ki of 32 µM.
The result for VATRRLSGFLRTLADRLEGTKELL (also called peptide e)) [Mina53 peptide] reads 20 µM; that for MATVIHNPLKALGDQFYKEAIEHC (also called peptide a)) [Cerd4 peptide], 9 µM; that for RLKHSCLLALKRAADLLGQRSSST (also called peptide c)) [Genematch peptide], 1 µM.
The result for DMWDTRIAKLRVSADSFVRQQEA (also called peptide d)) [Loc 51569 peptide] reads 8 µM.

Broadly, the Ki is a dissociation constant, usually derived from enzyme kinetics or from competition with a known ligand.
